According to patent US20240384250A1, “FIBROBLAST GROWTH FACTOR 23 MODULATING COMPOUNDS” (THE UAB RESEARCH FOUNDATION, priority 2021, published 2024):

Molecular target: recombinant FGF23 protein (species not stated for the assay)
Test: sKL detection assay (sandwich): FGF23 coated, sKL sample, then Fc-FGFR1c, anti-Fc-HRP, A450

For “FLAG-tagged soluble klotho (sKL) (receptor)”, which fold binding activity against Com.sKL is on record?
The fold binding activity against Com.sKL was 7 fold.
